Assay results reported in US20230136228A1 (LAMKAP BIO ALPHA, published 2023).

Key:
[1] = target: T1, human CEACAM5 (carcinoembryonic antigen, CEA), cell surface (human, UniProt P06731 35-685); experiment: flow cytometry, CEA positive cells
T1 construct: whole, on cells; also called CD66e
T1 sequence (looked up): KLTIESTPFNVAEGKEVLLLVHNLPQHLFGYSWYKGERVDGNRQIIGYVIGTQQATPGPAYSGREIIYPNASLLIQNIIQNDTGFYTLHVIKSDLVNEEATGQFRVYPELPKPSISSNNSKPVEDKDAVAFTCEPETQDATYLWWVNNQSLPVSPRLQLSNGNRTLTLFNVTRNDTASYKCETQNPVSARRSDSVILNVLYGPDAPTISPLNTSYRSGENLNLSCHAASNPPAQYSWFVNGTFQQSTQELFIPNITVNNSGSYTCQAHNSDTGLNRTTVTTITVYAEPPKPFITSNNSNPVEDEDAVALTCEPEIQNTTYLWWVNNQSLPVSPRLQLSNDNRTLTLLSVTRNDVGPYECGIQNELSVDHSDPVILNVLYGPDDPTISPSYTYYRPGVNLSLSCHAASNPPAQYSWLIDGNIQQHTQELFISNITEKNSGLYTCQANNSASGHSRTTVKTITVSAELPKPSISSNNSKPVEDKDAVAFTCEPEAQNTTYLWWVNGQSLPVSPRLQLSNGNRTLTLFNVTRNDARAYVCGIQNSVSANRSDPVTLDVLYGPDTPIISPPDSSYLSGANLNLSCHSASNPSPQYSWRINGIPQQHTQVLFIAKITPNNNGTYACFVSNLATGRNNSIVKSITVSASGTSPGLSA

[2] = target: T2, human CEACAM1 (human, UniProt P13688 35-526); experiment: flow cytometry, transfected PEAK cells
T2 construct: whole, on cells
T2 sequence (looked up): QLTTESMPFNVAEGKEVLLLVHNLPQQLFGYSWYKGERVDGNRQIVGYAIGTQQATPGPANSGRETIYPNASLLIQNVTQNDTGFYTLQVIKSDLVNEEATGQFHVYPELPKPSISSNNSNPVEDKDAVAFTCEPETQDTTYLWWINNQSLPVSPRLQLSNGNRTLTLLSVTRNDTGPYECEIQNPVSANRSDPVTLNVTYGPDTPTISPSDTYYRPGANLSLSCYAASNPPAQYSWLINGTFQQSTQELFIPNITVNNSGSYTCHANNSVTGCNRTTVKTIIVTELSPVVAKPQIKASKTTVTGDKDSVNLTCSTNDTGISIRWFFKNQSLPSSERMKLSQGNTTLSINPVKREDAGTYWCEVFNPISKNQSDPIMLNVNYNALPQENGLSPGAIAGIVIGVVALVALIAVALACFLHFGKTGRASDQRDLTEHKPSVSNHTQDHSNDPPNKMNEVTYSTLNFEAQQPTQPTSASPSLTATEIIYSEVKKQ
Source text: (§1) Vectors encoding the full-length version of human CEACAM 1, 3, 4, 5, 6, 7, 8, 18, 19, 20 and […] are used to express these proteins at the surface of PEAK and/or CHO cells as described in Example 1. Similarly, vectors encoding the full-length version of cyno CEACAM 5 and 6 are also used to express these proteins at the surface of PEAK and/or CHO cells. Non-transfected PEAK and/or CHO cells are used as negative control. Cells are harvested, counted, checked for viability and resuspended at 3×10⁶ cells/ml in FACS buffer (PBS 2% BSA, 0.1% NaN₃). 100 μl of the cell suspension are distributed in V-bottom 96-well plates (3×10⁵ cells/well). The supernatant is removed by centrifugation 3 minutes at 4° C., 1300 rpm and the cells incubated for 15 minutes at 4° C. with increasing concentrations of the antibody according to the invention. The antibodies carrying the anti-CEACAM5 arms to test are diluted in FACS buffer and the concentration range is 30 pM-500 nM. Cells are washed twice with cold FACS buffer and re-incubated for further 15 minutes at 4° C. with a compatible anti-human IgG secondary antibody. Cells are washed twice with cold FACS buffer and resuspended in 300 μl FACS buffer with 1:1500-diluted TOPRO-3 (Invitrogen). Fluorescence is measured using a FACSCalibur™ (BD Biosciences) or a Cytoflex Platform (Beckman Coulter). Dose-response binding curves are fitted using GraphPad Prism8 software. In the same manner, CEACAM1, CEACAM6 and other CEACAMs can be characterized.
(§2) For the bispecific antibodies AB17L3-1/N, AB71L3-1/N, AB72L3-1/N, AB73L3-1/N the MFI measured for binding to CEACAM5 transfected cells was found between 29000 and 41000 (Table 2). In contrast MFI found by using PEAK cells transfected with CEACAM 1,3,4,6,8 were found below 1000 with the only exception of a strong signal for AB72L3-1/N on CEACAM8 transfected cells. When MFI values obtained on transfected cells expressing any given CEACAM are divided by the values obtained on WT PEAK cells, “factors to PEAK WT” can be calculated (Table 3).

[3] = target: T3, human CEACAM3 (human, UniProt P40198 35-252); experiment: flow cytometry, transfected PEAK cells
T3 construct: whole, on cells
T3 sequence (looked up): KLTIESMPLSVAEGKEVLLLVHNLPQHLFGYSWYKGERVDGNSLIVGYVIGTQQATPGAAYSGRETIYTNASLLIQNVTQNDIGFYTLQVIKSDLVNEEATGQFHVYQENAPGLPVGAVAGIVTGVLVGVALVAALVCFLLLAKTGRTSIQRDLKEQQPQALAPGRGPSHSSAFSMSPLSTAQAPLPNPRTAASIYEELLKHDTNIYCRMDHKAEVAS
Source text: as §1, §2

B1: AB72L3-1/N (bispecific antibody, human IgG1, kappa, lambda, L234A L235A)
heavy: EVQLVESGGGLVQPGGSLKLSCAASGFTFNTYAMNWVRQAPGKGLEWVGRIRSKYNNYATYYADSVKDRFTISRDDSKNTAYLQMNSLKTEDTAVYYCVRHGNFGNSYVSWFAYWGQGTLVTVSSASTKGPSVFPLAPSSKSTSGGTAALGCLVKDYFPEPVTVSWNSGALTSGVHTFPAVLQSSGLYSLSSVVTVPSSSLGTQTYICNVNHKPSNTKVDKRVEPKSCDKTHTCPPCPAPEAAGGPSVFLFPPKPKDTLMISRTPEVTCVVVDVSHEDPEVKFNWYVDGVEVHNAKTKPREEQYNSTYRVVSVLTVLHQDWLNGKEYKCKVSNKALAAPIEKTISKAKGQPREPQVYTLPPSREEMTKNQVSLTCLVKGFYPSDIAVEWESNGQPENNYKTTPPVLDSDGSFFLYSKLTVDKSRWQQGNVFSCSVMHEALHNHYTQKSLSLSPG
light 1: EIVLTQSPATLSLSPGERATLSCRASQSVNSNLNWYQQKPGQAPRLLIYHSTNRPRGIPARFSGSGSGTDFTLTISSLEPEDFAVYYCQQFDYFKEYNTFGQGTKVEIKRTVAAPSVFIFPPSDEQLKSGTASVVCLLNNFYPREAKVQWKVDNALQSGNSQESVTEQDSKDSTYSLSSTLTLSKADYEKHKVYACEVTHQGLSSPVTKSFNRGEC
light 2: QTVVTQEPSLTVSPGGTVTLTCRSSTGAVTTSNYANWFQQKPGQAPRGLIGGTNKRAPGTPARFSGSLLGGKAALTLSGAQPEDEAEYYCALWYKQRWVFGGGTKLTVLGQPKAAPSVTLFPPSSEELQANKATLVCLISDFYPGAVTVAWKADSSPVKAGVETTTPSKQSNNKYAASSYLSLTPEQWKSHRSYSCQVTHEGSTVEKTVAPTECS
notes: Kappa-lambda body, lead optimization wave 2
Question: What does the source list for B1?
Answer: binding higher than TCB2014 (at 200 nM) [1]: ≥ 40%; binding result [2]: no binding (tested: 10 mcg/ml); binding result [3]: no binding (tested: 10 mcg/ml)
